Source: publication PMC314469, “Protein Interaction Networks by Proteome Peptide Scanning” (PLoS Biology, 2004)

T1: amphyphisin SH3 (AMPH_HUMAN), P49418
T1 chain: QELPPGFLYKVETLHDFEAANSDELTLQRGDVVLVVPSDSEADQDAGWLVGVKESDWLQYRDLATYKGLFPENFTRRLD


Experiments:
[1] = biological target: endophilin SH3 (SH3G2_HUMAN), Q99962; assay: SPOT array
[2] = biological target: T1, amphyphisin SH3 (AMPH_HUMAN), P49418; assay: SPOT array

| Binder | normalised SPOT signal, Boehringer light units (BLU); mean over the file's lines of this peptide [1] | normalised SPOT signal, Boehringer light units (BLU); mean over the file's lines of this peptide [2] |
| --- | --- | --- |
| GEQAPARPPRNVQA [Q9UM81 410-423] | 527 | 3470 |
| GGASPGRPPQPEQP [Q00056 105-119] | 845 | 38.2 |
| GHRDPRRPRPAQLP [O00456 566-579] | 418 | 12.9 |
| GGHGPERPKRPGSL [Q9HCE9 771-784] | 1320 | 7740 |
| GGDALGRPPRGARS [Q9H3Z7 68-81] | 741 | 2160 |
| AALRPPRPARGSRL [Q9BZJ7 202-215] | 23700 | 17100 |
| GEQTFKRPAEDTLY [Q96LK2 45-58] | 15.9 | 15.2 |
| GESRIRRPMNAFMV [Q9H6I2 64-77] | 138 | 46.4 |
| GGVRLRRPSVNGEP [Q9H7M7 1141-1154] | 36 | 35.8 |
| GGASPLRPPGAGPQ [Q9H013 877-891] | 80.4 | 63.9 |
| AAALPAKPPNLDAA [Q96GI7 75-89] | 73 | 53.7 |
| GGFLPARPPRAQRH [Q9ULP6 14-28] | 14800 | 18500 |
| GGPRPRRPLLLPNL [Q9UQ05 736-749] | 2950 | 40.5 |
| GESRLKRPSVLISA [Q13319 50-63] | 0 | 31.9 |
| GFGVLRRPRPTPGD [Q9H5X0 195-208] | 74.2 | 38.4 |
| AKREPRRPSWSPRL [Q96BH5 55-68] | 195 | 47.1 |

Now from value to binder:

| normalised SPOT signal, Boehringer light units (BLU); mean over the file's lines of this peptide [1] | normalised SPOT signal, Boehringer light units (BLU); mean over the file's lines of this peptide [2] | Binder |
| --- | --- | --- |
| 72.8 | 28 | GGRTPRRPGLQSGG [O94836 58-71] |
| 214 | 2370 | GHQEFARPSRGYLA [P13385 32-45] |
| 1350 | 93.5 | GGPSPSRPPPSLFS [O43823 235-249] |
| 22700 | 18100 | GGFKPSRPPRPSRP [O43584 81-95] |
| 141 | 1220 | AKRHPRRPPRSPGM [Q99973 387-400] |
| 1590 | 9950 | GEGGPQRPSRSQRR [O75145 4-17] |
| 536 | 43.1 | GGQPPPRPPPGMPH [Q15427 329-343] |
| 52.8 | 1570 | GHQEFARPSRGDLA [P51864 32-45] |
| 68.7 | 43.2 | GEGMFRRPSEGQSL [Q92622 499-512] |
| 1140 | 45.2 | GEVPPPRPPPPEEK [P18206 866-880] |
| 10200 | 9490 | GFPAPFRPSRKRSG [O43594 101-114] |
| 200 | 34.8 | AKMPLRRPKMKKTP [O95359 373-386] |
| 499 | 811 | GGGSPEKPPSRRRP [O95153 1407-1421] |
| 59.1 | 23.6 | GEPSPKRPRGRPKG [P52926 41-54] |
| 65.1 | 20.6 | GHGEPRRPPSDPLA [Q14349 378-391] |
